The EC50 is the midpoint of the concentration-response curve. A higher EC50 goes with lower potency in that assay. The IC50 is the concentration needed to halve the response being measured. Higher therefore signals a need for much substance. The term Kd denotes the constant that tells how readily two partners part at equilibrium.

Assay [1] deals with human HLA-G and β2 microglobulin stably expressed on the HLAG-β2m-Reh cell line (human, UniProt P17693 25-338; P61769 21-119). As to the kind of experiment: cell-based or functional assay.
Assay [2] deals with T1, HLA-G naturally expressed on human choriocarcinoma trophoblastic JEG3 cells (human, UniProt P17693 25-338; P61769 21-119).
T1 construct: whole, on cells; also called JEG3 WT
Put plainly: flow cytometry on JEG3 WT cells, IgG1 100-0.05 nM. On the technique in general: In flow cytometry, cells or beads pass a laser one at a time.

The target in assay [3] is T2, HLA-G wild type, membrane-bound, co-expressed with B2m on transfected cells (HEK293 / HCT116) (human, UniProt P17693 25-338; P61769 21-119).
T2 construct: Same construct transiently expressed on HEK293 (Expi293) or HCT116 cells; the cell line is named under assay; also called HLA-G WT; HEK-HLAG
As to the kind of experiment: flow cytometry on HEK293 cells transfected with HLA-G/B2m.

Assay [4] has as its target T1, HLA-G naturally expressed on human …. Put plainly: flow cytometry, blocking of ILT2rbFc binding to JEG3 cells.
Assay [5] addresses HLA-A consensus sequence, co-expressed with B2m on HEK293 cells (human, UniProt P04439 25-365; P61769 21-119). As to the kind of experiment: flow cytometry on HEK293 cells transfected with HLA-A consensus/B2m.
The target of assay [6] is HLA-B consensus sequence, co-expressed with B2m on HEK293 cells (human, UniProt P01889 25-362 at identity 0.96); P61769 21-119). Put plainly: flow cytometry on HEK293 cells transfected with HLA-B consensus/B2m.
The target of assay [7] is HLA-C consensus sequence, co-expressed with B2m on HEK293 cells (human, UniProt P10321 25-366; P61769 21-119). As to the kind of experiment: flow cytometry on HEK293 cells transfected with HLA-C consensus/B2m.
Assay [8] addresses HLA-E consensus sequence, co-expressed with B2m on HEK293 cells (human, UniProt P13747 22-358; P61769 21-119). Put plainly: flow cytometry on HEK293 cells transfected with HLA-E consensus/B2m.
Assay [9] concerns the target HLA-F consensus sequence, co-expressed with B2m on HEK293 cells (human, UniProt P30511 22-346; P61769 21-119). Put plainly: flow cytometry on HEK293 cells transfected with HLA-F consensus/B2m.
For assay [10], the target named is T2, HLA-G wild type, membrane-bound, …. Put plainly: flow cytometry, blocking of ILT2rbFc binding to HLA-G/B2m HEK293 cells.
Assay [11] has the same target. Put plainly: flow cytometry, blocking of ILT4rbFc binding to HLA-G/B2m HCT116 cells.
The target of assay [12] is T1, HLA-G naturally expressed on human …. As to the kind of experiment: flow cytometry, blocking of ILT2rbFc binding to JEG3 cells, large volume.
The target in assay [13] is T3, Human HLA-G ECD + B2m (soluble, AVItev10His tag) (human).
T3 construct: also called soluble HLA-G
As to the kind of experiment: SPR, 25 C, hIgG1 captured via anti-human Fc, HLA-G ECD+B2m titrated from 50 nM, another assay.

Assay [14] concerns the target T1, HLA-G naturally expressed on human …. Put plainly: flow cytometry on JEG3 cells, 1.5 ml IgG solution, geometric mean of three independent assays; geometric mean of three independent assays.
Assay [15] has the same target. Put plainly: flow cytometry on JEG3 cells, 1.5 ml IgG1 solution, 10-0.0005 nM.
Assay [16] has as its target T3, Human HLA-G ECD + B2m (soluble, …). Put plainly: SPR, 25 C, hIgG1 captured via anti-human Fc, HLA-G ECD+B2m titrated from 50 nM.
Assay [17] shares this target. Put plainly: SPR, 25 C, hIgG1 captured via anti-human Fc, HLA-G ECD+B2m 50 nM as analyte, first experiment.
Assay [18] shares this target. Put plainly: SPR, 25 C, hIgG1 captured via anti-human Fc, HLA-G ECD+B2m 50 nM as analyte, second experiment.

B1: Afucosylated HLA-G02 (antibody, human IgG1, kappa)
heavy: not shown
light: AIVLTQSPSSLSASVGDRVTITCQASQSIYSYLSWYQQKPGKAPKLLIYKASTLASGVPSRFSGSGSGTDFTLTISSLQPEDFATYYCQNHWNVGGNGWPFGGGTKVEIKRTVAAPSVFIFPPSDEQLKSGTASVVCLLNNFYPREAKVQWKVDNALQSGNSQESVTEQDSKDSTYSLSSTLTLSKADYEKHKVYACEVTHQGLSSPVTKSFNRGEC
modifications: afucosylated IgG1 (produced in FUT8 knock-out CHO-SXE cells)
notes: also called aF HLA-G02; Afucosylated HLA-02
Take B1: in assay [1], the “EC50 (nM) of CDC, lot 1” value is 2.51 nM. For the same molecule, in assay [1], the “EC50 (nM) of CDC, lot 2” value was determined as 3.29 nM. For the same molecule, the “EC50 (nM) of CDC, lot 3” value in [1] is 3.7 nM. In addition, the EC50 in assay [2] came to 0.2 nM; in [3] it was 0.92 nM; in assay [14], 0.021 nM. Also, the IC50 in assay [4] came to 0.51 nM; in assay [10] it was 0.83 nM; in assay [11], 1.38 nM; in assay [12], 0.021 nM. The binding result in [5], in assay [6], in assay [7], in assay [8] and in [9] was “no binding (tested: IgG up to 100 nM)” in each case. The Kd in assay [13] was 4.4 nM.

B2: HLA-G02 (humanised VR12389gL2gH16 IgG1, conventional i.e. fucosylated) (antibody)
heavy: not shown
light: AIVLTQSPSSLSASVGDRVTITCQASQSIYSYLSWYQQKPGKAPKLLIYKASTLASGVPSRFSGSGSGTDFTLTISSLQPEDFATYYCQNHWNVGGNGWPFGGGTKVEIKRTVAAPSVFIFPPSDEQLKSGTASVVCLLNNFYPREAKVQWKVDNALQSGNSQESVTEQDSKDSTYSLSSTLTLSKADYEKHKVYACEVTHQGLSSPVTKSFNRGEC
notes: also called conventional HLA-G02
For the molecule B2, the EC50 in [2] is 0.43 nM; in assay [3] it was 1.65 nM. Further, the IC50 turned out to be 0.53 nM in [4], 1.37 nM in assay [10] and 1.31 nM in assay [11]. Moreover, the Kd is 0.02 nM in assay [15]; 5.09 nM in assay [16]; 4.78 nM in assay [17]; 4.3 nM in assay [13]; 5.42 nM in assay [18]. Moreover, the binding result in assay [5], in [6], in assay [7], in [8] and in [9] was “no binding (tested: IgG up to 100 nM)” throughout.

These data come from patent publication US20250026836A1 (UCB, published 2025).
